Paper PMC8643664

Target: TRF2 (45–244)-LacI
Assay: lacO-LacI protein tethering assay

co-localization frequency	Binder
46%	FLAG-ORC1 (325–511) (domain or fragment) SKTIDIREERTLTPISGGQRSSVVPSVILKPENIKKRDAKEAKAQNEATSTPHRIRRKSSVLTMNRIRQQLRFLGNSKSDQEEKEILPAAEISDSSSDEEEASTPPLPRRAPRTVSRNLRSSLKSSLHTLTKVPKKSLKPRTPRCAAPQIRSRSLAAQEPASVLEEARLRLHVSAVPESLPCREQEF
26%	FLAG-ORC1 (full-length) (natural protein) MAHYPTRLKTRKTYSWVGRPLLDRKLHYQTYREMCVKTEGCSTEIHIQIGQFVLIEGDDDENPYVAKLLELFEDDSDPPPKKRARVQWFVRFCEVPACKRHLLGRKPGAQEIFWYDYPACDSNINAETIIGLVRVIPLAPKDVVPTNLKNEKTLFVKLSWNEKKFRPLSSELFAELNKPQESAAKCQKPVRAKSKSAESPSWTPAEHVAKRIESRHSASKSRQTPTHPLTPRARKRLELGNLGNPQMSQQTSCASLDSPGRIKRKVAFSEITSPSKRSQPDKLQTLSPALKAPEKTRETGLSYTEDDKKASPEHRIILRTRIAASKTIDIREERTLTPISGGQRSSVVPSVILKPENIKKRDAKEAKAQNEATSTPHRIRRKSSVLTMNRIRQQLRFLGNSKSDQEEKEILPAAEISDSSSDEEEASTPPLPRRAPRTVSRNLRSSLKSSLHTLTKVPKKSLKPRTPRCAAPQIRSRSLAAQEPASVLEEARLRLHVSAVPESLPCREQEFQDIYNFVESKLLDHTGGCMYISGVPGTGKTATVHEVIRCLQQAAQANDVPPFQYIEVNGMKLTEPHQVYVQILQKLTGQKATANHAAELLAKQFCTRGSPQETTVLLVDELDLLWTHKQDIMYNLFDWPTHKEARLVVLAIANTMDLPERIMMNRVSSRLGLTRMCFQPYTYSQLQQILRSRLKHLKAFEDDAIQLVARKVAALSGDARRCLDICRRATEICEFSQQKPDSPGLVTIAHSMEAVDEMFSSSYITAIKNSSVLEQSFLRAILAEFRRSGLEEATFQQIYSQHVALCRMEGLPYPTMSETMAVCSHLGSCRLLLVEPSRNDLLLRVRLNVSQDDVLYALKDE

The remaining lines, values behind:

Binder	co-localization frequency
FLAG-ORC1 (2–511) (domain or fragment) AHYPTRLKTRKTYSWVGRPLLDRKLHYQTYREMCVKTEGCSTEIHIQIGQFVLIEGDDDENPYVAKLLELFEDDSDPPPKKRARVQWFVRFCEVPACKRHLLGRKPGAQEIFWYDYPACDSNINAETIIGLVRVIPLAPKDVVPTNLKNEKTLFVKLSWNEKKFRPLSSELFAELNKPQESAAKCQKPVRAKSKSAESPSWTPAEHVAKRIESRHSASKSRQTPTHPLTPRARKRLELGNLGNPQMSQQTSCASLDSPGRIKRKVAFSEITSPSKRSQPDKLQTLSPALKAPEKTRETGLSYTEDDKKASPEHRIILRTRIAASKTIDIREERTLTPISGGQRSSVVPSVILKPENIKKRDAKEAKAQNEATSTPHRIRRKSSVLTMNRIRQQLRFLGNSKSDQEEKEILPAAEISDSSSDEEEASTPPLPRRAPRTVSRNLRSSLKSSLHTLTKVPKKSLKPRTPRCAAPQIRSRSLAAQEPASVLEEARLRLHVSAVPESLPCREQEF	73%
FLAG-ORC1 (244–511) (domain or fragment) NPQMSQQTSCASLDSPGRIKRKVAFSEITSPSKRSQPDKLQTLSPALKAPEKTRETGLSYTEDDKKASPEHRIILRTRIAASKTIDIREERTLTPISGGQRSSVVPSVILKPENIKKRDAKEAKAQNEATSTPHRIRRKSSVLTMNRIRQQLRFLGNSKSDQEEKEILPAAEISDSSSDEEEASTPPLPRRAPRTVSRNLRSSLKSSLHTLTKVPKKSLKPRTPRCAAPQIRSRSLAAQEPASVLEEARLRLHVSAVPESLPCREQEF	90%
